B1: Coiled-coil quantitatively-enriched protein 1 (Schizosaccharomyces pombe (strain ATCC 38366 / 972)), Q10432 (parent)
chain: MSEINDFTNSIIINESDTKYEVYSEVNSSNRWIAKEDCPSPLEDVWLLKLAGHKRKLEEPLSCMRNEEPASKQREIEKFLRTDLDHSENDFLTQEVDEFPSTQQLFPIPLQNDTAFDSSEESITKSSKSSFSVLDIGLPMSALQRKMMHRLVQYFAFCIDHFCTGPSDSRIQEKIRLFIQSAHNIAKHPSLYDTEVRNPSAAESTNSHVSLDASNFSSYAENSSKFLFLQELFKNLSPSYSKTFFLFISNQFLANTLTQWLKSQNIDAELWAEEDAKTSQHPAIWICVSKKAPSASHFLQSCPDLSATIFYDIEAYMSVTSSLPSIQSLVLRLIHLGSIEHAIKCFQSSYNASFLVNIVGVVATLSSSSEENSEASNLSTLFEKSGNFEEILGSESHSSITEKTRDIAKNVATWLKNGENFSSWPLPPLMDLASLSVAEPRDSQPSVSQVNDTFVKSSDSTFPSSQSMQSPSKLHSLTSNATDLLSSSSLKKNFFSQQEADEVELSNNYDLQGAAVQYLQRRLRMVEDELHEAINSKNVQQSRSEELEQQISKLTDNLQEYRNTVRELKLDLEKSKKKNEDLSKLEVEKVEEIANLKKELTHLAKQQEFGFKYVQEFSNEDLQGKLIEANEKNYKLTQLLKTQKEDADFITNQYQNASTFAAEQSKEVAKLQAECKRLQAINSKVMEEVKVYNDSRVEALLAKVSSLEETLKILEQKSLPKFTPHNQSPRIIDSN
partner: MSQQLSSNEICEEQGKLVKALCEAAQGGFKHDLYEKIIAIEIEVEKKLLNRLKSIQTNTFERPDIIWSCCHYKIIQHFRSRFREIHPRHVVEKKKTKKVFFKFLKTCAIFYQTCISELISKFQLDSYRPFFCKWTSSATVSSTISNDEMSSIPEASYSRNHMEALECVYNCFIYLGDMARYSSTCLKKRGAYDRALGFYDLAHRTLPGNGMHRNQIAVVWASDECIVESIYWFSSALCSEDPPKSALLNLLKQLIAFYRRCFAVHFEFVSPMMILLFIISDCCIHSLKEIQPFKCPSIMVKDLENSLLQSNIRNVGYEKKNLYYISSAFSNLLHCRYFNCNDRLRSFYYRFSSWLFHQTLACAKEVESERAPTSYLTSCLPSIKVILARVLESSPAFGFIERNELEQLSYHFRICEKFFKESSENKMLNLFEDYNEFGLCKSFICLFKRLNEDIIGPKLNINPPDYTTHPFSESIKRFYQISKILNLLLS
B2: Telomere elongation protein est1 (Schizosaccharomyces pombe (strain ATCC 38366 / 972)), O74804 (parent)
chain: B1 partner
partner: B1 chain

Variants of: B1
Conditions: with est1_schpo est1, O74804
With Q94A the “effect of a mutation on the interaction” value was “decreasing interaction”.
For T93D, the “effect of a mutation on the interaction” value was “disrupting interaction”.

Variants of: B1
Conditions: with est1_schpo est1, O74804
Remark: another data set of the same source
In the case of Q94A, the “effect of a mutation on the interaction” value is reported as “disrupting interaction”.
With T93D the “effect of a mutation on the interaction” value was “disrupting interaction strength”.
With T93E the “effect of a mutation on the interaction” value was “disrupting interaction strength”.
T93A was tested, and the “effect of a mutation on the interaction” value was “disrupting interaction strength”.

Variants of: B2
Conditions: with ccq1_schpo ccq1, Q10432
With MSQQLSSNEICEEQGKLVKALCEAAQGGFKHDLYEKIIAIEIEVEKKLLNRLKSIQTNTFERPDIIWSCCHYKIIQHFASRFREIHPRHVVEKKKTKKVFFKFLKTCAIFYQTCISELISKFQLDSYRPFFCKWTSSATVSSTISNDEMSSIPEASYSRNHMEALECVYNCFIYLGDMARYSSTCLKKRGAYDRALGFYDLAHRTLPGNGMHRNQIAVVWASDECIVESIYWFSSALCSEDPPKSALLNLLKQLIAFYRRCFAVHFEFVSPMMILLFIISDCCIHSLKEIQPFKCPSIMVKDLENSLLQSNIRNVGYEKKNLYYISSAFSNLLHCRYFNCNDRLRSFYYRFSSWLFHQTLACAKEVESERAPTSYLTSCLPSIKVILARVLESSPAFGFIERNELEQLSYHFRICEKFFKESSENKMLNLFEDYNEFGLCKSFICLFKRLNEDIIGPKLNINPPDYTTHPFSESIKRFYQISKILNLLLS [R79A] the “effect of a mutation on the interaction” value was “disrupting interaction”.
MSQQLSSNEICEEQGKLVKALCEAAQGGFKHDLYEKIIAIEIEVEKKLLNRLKSIQTNTFERPDIIWSCCHYKIIQHFASRFREIHPRHVVEKKKTKKVFFKFLKTCAIFYQTCISELISKFQLDSYRPFFCKWTSSATVSSTISNDEMSSIPEASYSRNHMEALECVYNCFIYLGDMAAYSSTCLKKRGAYDRALGFYDLAHRTLPGNGMHRNQIAVVWASDECIVESIYWFSSALCSEDPPKSALLNLLKQLIAFYRRCFAVHFEFVSPMMILLFIISDCCIHSLKEIQPFKCPSIMVKDLENSLLQSNIRNVGYEKKNLYYISSAFSNLLHCRYFNCNDRLRSFYYRFSSWLFHQTLACAKEVESERAPTSYLTSCLPSIKVILARVLESSPAFGFIERNELEQLSYHFRICEKFFKESSENKMLNLFEDYNEFGLCKSFICLFKRLNEDIIGPKLNINPPDYTTHPFSESIKRFYQISKILNLLLS [R79A;R180A] was tested, and the “effect of a mutation on the interaction” value was “disrupting interaction”.
MSQQLSSNEICEEQGKLVKALCEAAQGGFKHDLYEKIIAIEIEVEKKLLNRLKSIQTNTFERPDIIWSCCHYKIIQHFRSRFREIHPRHVVEKKKTKKVFFKFLKTCAIFYQTCISELISKFQLDSYRPFFCKWTSSATVSSTISNDEMSSIPEASYSRNHMEALECVYNCFIYLGDMAAYSSTCLKKRGAYDRALGFYDLAHRTLPGNGMHRNQIAVVWASDECIVESIYWFSSALCSEDPPKSALLNLLKQLIAFYRRCFAVHFEFVSPMMILLFIISDCCIHSLKEIQPFKCPSIMVKDLENSLLQSNIRNVGYEKKNLYYISSAFSNLLHCRYFNCNDRLRSFYYRFSSWLFHQTLACAKEVESERAPTSYLTSCLPSIKVILARVLESSPAFGFIERNELEQLSYHFRICEKFFKESSENKMLNLFEDYNEFGLCKSFICLFKRLNEDIIGPKLNINPPDYTTHPFSESIKRFYQISKILNLLLS [R180A] was tested, and the “effect of a mutation on the interaction” value was “disrupting interaction”.

Variants of: B2
Conditions: with ccq1_schpo ccq1, Q10432
Remark: another data set of the same source
For MSQQLSSNEICEEQGKLVKALCEAAQGGFKHDLYEKIIAIEIEVEKKLLNRLKSIQTNTFERPDIIWSCCHYKIIQHFASRFREIHPRHVVEKKKTKKVFFKFLKTCAIFYQTCISELISKFQLDSYRPFFCKWTSSATVSSTISNDEMSSIPEASYSRNHMEALECVYNCFIYLGDMARYSSTCLKKRGAYDRALGFYDLAHRTLPGNGMHRNQIAVVWASDECIVESIYWFSSALCSEDPPKSALLNLLKQLIAFYRRCFAVHFEFVSPMMILLFIISDCCIHSLKEIQPFKCPSIMVKDLENSLLQSNIRNVGYEKKNLYYISSAFSNLLHCRYFNCNDRLRSFYYRFSSWLFHQTLACAKEVESERAPTSYLTSCLPSIKVILARVLESSPAFGFIERNELEQLSYHFRICEKFFKESSENKMLNLFEDYNEFGLCKSFICLFKRLNEDIIGPKLNINPPDYTTHPFSESIKRFYQISKILNLLLS [R79A], the “effect of a mutation on the interaction” value was “decreasing interaction”.
MSQQLSSNEICEEQGKLVKALCEAAQGGFKHDLYEKIIAIEIEVEKKLLNRLKSIQTNTFERPDIIWSCCHYAIIQHFRSRFREIHPRHVVEKKKTKKVFFKFLKTCAIFYQTCISELISKFQLDSYRPFFCKWTSSATVSSTISNDEMSSIPEASYSRNHMEALECVYNCFIYLGDMARYSSTCLKKRGAYDRALGFYDLAHRTLPGNGMHRNQIAVVWASDECIVESIYWFSSALCSEDPPKSALLNLLKQLIAFYRRCFAVHFEFVSPMMILLFIISDCCIHSLKEIQPFKCPSIMVKDLENSLLQSNIRNVGYEKKNLYYISSAFSNLLHCRYFNCNDRLRSFYYRFSSWLFHQTLACAKEVESERAPTSYLTSCLPSIKVILARVLESSPAFGFIERNELEQLSYHFRICEKFFKESSENKMLNLFEDYNEFGLCKSFICLFKRLNEDIIGPKLNINPPDYTTHPFSESIKRFYQISKILNLLLS [K73A] was tested, and the “effect of a mutation on the interaction” value was “decreasing interaction”.

From IntAct's records for PubMed 22101932
